According to article doi:10.1101/2020.07.30.230052 (bioRxiv, 2020):

B1: Oligo-histidine tagged NlpI (His-NlpI) (natural protein, Escherichia coli, UniProt P0AFB1 19-294, looked up)
chain: CSNTSWRKSEVLAVPLQPTLQQEVILARMEQILASRALTDDERAQLLYERGVLYDSLGLRALARNDFSQALAIRPDMPEVFNYLGIYLTQAGNFDAAYEAFDSVLELDPTYNYAHLNRGIALYYGGRDKLAQDDLLAFYQDDPNDPFRSLWLYLAEQKLDEKQAKEVLKQHFEKSDKEQWGWNIVEFYLGNISEQTLMERLKADATDNTSLAEHLSETNFYLGKYYLSLGDLDSATALFKLAVANNVHNFVEHRYALLELSLLGQDQDDLAESDQQ
B2: PBP4 (penicillin binding protein 4, DD-carboxy/endopeptidase) of Escherichia coli, wild type, purified (enzyme)
chain: ANVDEYITQLPAGANLALMVQKVGASAPAIDYHSQQMALPASTQKVITALAALIQLGPDFRFTTTLETKGNVENGVLKGDLVARFGADPTLKRQDIRNMVATLKKSGVNQIDGNVLIDTSIFASHDKAPGWPWNDMTQCFSAPPAAAIVDRNCFSVSLYSAPKPGDMAFIRVASYYPVTMFSQVRTLPRGSAEAQYCELDVVPGDLNRFTLTGCLPQRSEPLPLAFAVQDGASYAGAILKDELKQAGITWSGTLLRQTQVNEPGTVVASKQSAPLHDLLKIMLKKSDNMIADTVFRMIGHARFNVPGTWRAGSDAVRQILRQQAGVDIGNTIIADGSGLSRHNLIAPATMMQVLQYIAQHDNELNFISMLPLAGYDGSLQYRAGLHQAGVDGKVSAKTGSLQGVYNLAGFITTASGQRMAFVQYLSGYAVEPADQRNRRIPLVRFESRLYKDIYQNN

Key:
[1] = target: PBP4 lacking domain 3 (PBP4ΔD3), purified (Escherichia coli) (UniProt P24228); test: AUC
[2] = target: LpoA, full length version, purified (Escherichia coli) (UniProt P45464); test: MST
[3] = target: N-terminal domain of LpoA (LpoA^N, residues G28-T256) (Escherichia coli) (UniProt P45464); test: MST
[4] = target: B2; test: pull-down
AUC = target: the molecule itself; test: AUC

Sequence of LpoA, full length version, purified (Escherichia coli) (P45464 27-678): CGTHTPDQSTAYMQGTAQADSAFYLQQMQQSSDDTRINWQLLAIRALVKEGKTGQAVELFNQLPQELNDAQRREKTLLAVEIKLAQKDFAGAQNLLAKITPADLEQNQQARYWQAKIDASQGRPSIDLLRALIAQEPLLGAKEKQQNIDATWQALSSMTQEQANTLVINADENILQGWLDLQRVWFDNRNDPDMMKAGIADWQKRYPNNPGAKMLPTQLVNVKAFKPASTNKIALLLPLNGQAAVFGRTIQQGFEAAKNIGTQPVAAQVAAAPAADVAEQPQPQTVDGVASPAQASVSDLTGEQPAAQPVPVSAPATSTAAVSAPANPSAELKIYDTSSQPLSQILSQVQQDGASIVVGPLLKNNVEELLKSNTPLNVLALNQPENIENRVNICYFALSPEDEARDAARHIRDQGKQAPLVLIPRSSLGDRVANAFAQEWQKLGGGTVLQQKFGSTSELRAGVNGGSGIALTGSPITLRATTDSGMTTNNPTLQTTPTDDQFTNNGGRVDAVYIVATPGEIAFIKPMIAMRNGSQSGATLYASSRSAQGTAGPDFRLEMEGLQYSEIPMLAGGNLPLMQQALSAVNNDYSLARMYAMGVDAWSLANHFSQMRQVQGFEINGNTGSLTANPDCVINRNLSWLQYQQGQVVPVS
Sequence of N-terminal domain of LpoA (LpoA^N, residues G28-T256) (Escherichia coli) (P45464 28-256): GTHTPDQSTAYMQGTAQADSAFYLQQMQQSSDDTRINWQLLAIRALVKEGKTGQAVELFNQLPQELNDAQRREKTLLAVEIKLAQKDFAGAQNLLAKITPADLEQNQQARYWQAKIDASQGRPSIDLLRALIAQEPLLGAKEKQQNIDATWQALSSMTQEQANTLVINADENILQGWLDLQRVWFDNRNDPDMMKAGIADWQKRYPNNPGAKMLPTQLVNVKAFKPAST

What does the source list for “PBP4 lacking domain 3 (PBP4ΔD3), purified (from UniProt P24228 21-477) (enzyme)”?
stoichiometry N [1]: 2; Kd [2]: 153 nM; fold decrease of app. KD against wild-type PBP4 [3]: 50 fold

Does B1 bind [4]?
Result: binds

For B2, which “stoichiometry N” value (AUC) is on record?
The value was 2.
